Test results published in the Human Domainome abundance scans (Beltran et al. 2025).
± gives the uncertainty stated by the source.

B1: Neutrophil cytosol factor 2, residues 456 to 514; numbered along this chain, P19878 (parent)
chain: LKKGSQVEALFSYEATQPEDLEFQEGDIILVLSKVNEEWLEGECKGKVGIFPKVFVEDC

Variants of: B1
Assay: abundance fitness (aPCA) (normalised: wild type 0, dead -1); higher = more abundant; growth selection in yeast, the domain comes from the species named
Details: Homo sapiens

Row | Variant | abundance fitness
1 | LKKGSQVEALFSYEATQPEDLEFQEGDIILVLSKVNEEWLEGECKGKYGIFPKVFVEDC [V48Y] | -0.17 ± 0.13
2 | LKKGSQVEALFSYEATQPEDLEFQEGDIILVLSKVNEEWLEGECKGKWGIFPKVFVEDC [V48W] | -0.901 ± 0.49
3 | LKKGSQVEALFSYEATQPEDLEFQEGDIILVLSKVNEEWLEGECKGKNGIFPKVFVEDC [V48N] | -0.334 ± 0.15
4 | LKKGSQVEALFSYEATQPEDLEFQEGDIILVLSKVNEEWLEGECKGKSGIFPKVFVEDC [V48S] | -0.355 ± 0.13
5 | LKKGSQVEALFSYEATQPEDLEFQEGDIILVLSKVNEEWLEGECKGKEGIFPKVFVEDC [V48E] | -0.974 ± 0.44
6 | LKKGSQVEALFSYEATQPEDLEFQEGDIILVLSKVNEEWLEGECKGKIGIFPKVFVEDC [V48I] | -0.138 ± 0.1
7 | LKKGSQVEALFSYEATQPEDLEFQEGDIILVLSKVNEEWLEGECKGKAGIFPKVFVEDC [V48A] | 0.008 ± 0.11
8 | LKKGSQVEALFSYEATQPEDLEFQEGDIILVLSKVNEEWLEGECKGKCGIFPKVFVEDC [V48C] | -0.392 ± 0.16
9 | LKKGSQVEALFSYEATQPEDLEFQEGDIILVLSKVNEEWLEGECKGKRGIFPKVFVEDC [V48R] | 0.68 ± 0.097
10 | LKKGSQVEALFSYEATQPEDLEFQEGDIILVLSKVNEEWLEGECKGKPGIFPKVFVEDC [V48P] | -1.04 ± 0.37
11 | LKKGSQVEALFSYEATQPEDLEFQEGDIILVLSKVNEEWLEGECKGKKGIFPKVFVEDC [V48K] | 0.295 ± 0.19
12 | LKKGSQVEALFSYEATQPEDLEFQEGDIILVLSKVNEEWLEGECKGKGGIFPKVFVEDC [V48G] | -0.387 ± 0.15
13 | LKKGSQVEALFSYEATQPEDLEFQEGDIILVLSKVNEEWLEGECKGKTGIFPKVFVEDC [V48T] | -0.031 ± 0.12
14 | LKKGSQVEALFSYEATQPEDLEFQEGDIILVLSKVNEEWLEGECKGKLGIFPKVFVEDC [V48L] | -0.706 ± 0.15
15 | LKKGSQVEALFSYEATQPEDLEFQEGDIILVLSKVNEEWLEGECKGKDGIFPKVFVEDC [V48D] | -0.443 ± 0.17
16 | LKKGSQVEALFSYEATQPEDLEFQEGDIILVLSKVNEEWLEGECKGKFGIFPKVFVEDC [V48F] | -0.505 ± 0.15
17 | LKKGSQVEALFSYEATQPEDLEFQEGDIILVLSKVNEEWLEGECKRKVGIFPKVFVEDC [G46R] | -0.392 ± 0.23
18 | LKKGSQVEALFSYEATQPEDLEFQEGDIILVLSKVNEEWLEGECKEKVGIFPKVFVEDC [G46E] | -0.189 ± 0.28
19 | LKKGSQVEALFSYEATQPEDLEFQEGDIILVLSKVNEEWLEGECKAKVGIFPKVFVEDC [G46A] | -0.313 ± 0.15
20 | LKKGSQVEALFSYEATQPEDLEFQEGDIILVLSKVNEEWLEGECKHKVGIFPKVFVEDC [G46H] | -0.84 ± 0.34
21 | LKKGSQVEALFSYEATQPEDLEFQEGDIILVLSKVNEEWLEGECKCKVGIFPKVFVEDC [G46C] | -0.479 ± 0.2
22 | LKKGSQVEALFSYEATQPEDLEFQEGDIILVLSKVNEEWLEGECKNKVGIFPKVFVEDC [G46N] | 0.219 ± 0.11
23 | LKKGSQVEALFSYEATQPEDLEFQEGDIILVLSKVNEEWLEGECKIKVGIFPKVFVEDC [G46I] | -0.615 ± 0.15

Row | Variant | abundance fitness
24 | LKKGSQVEALFSYEATQPEDLEFQEGDIILVLSKVNEEWLEGECKWKVGIFPKVFVEDC [G46W] | -0.346 ± 0.21
25 | LKKGSQVEALFSYEATQPEDLEFQEGDIILVLSKVNEEWLEGECKTKVGIFPKVFVEDC [G46T] | -0.904 ± 0.27
26 | LKKGSQVEALFSYEATQPEDLEFQEGDIILVLSKVNEEWLEGECKYKVGIFPKVFVEDC [G46Y] | -0.352 ± 0.14
27 | LKKGSQVEALFSYEATQPEDLEFQEGDIILVLSKVNEEWLEGECKDKVGIFPKVFVEDC [G46D] | -0.703 ± 0.19
28 | LKKGSQVEALFSYEATQPEDLEFQEGDIILVLSKVNEEWLEGECKKKVGIFPKVFVEDC [G46K] | -0.732 ± 0.42
29 | LKKGSQVEALFSYEATQPEDLEFQEGDIILVLSKVNEEWLEGECKPKVGIFPKVFVEDC [G46P] | -0.747 ± 0.47
30 | LKKGSQVEALFSYEATQPEDLEFQEGDIILVLSKVNEEWLEGECKMKVGIFPKVFVEDC [G46M] | -0.599 ± 0.34
31 | LKKGSQVEALFSYEATQPEDLEFQEGDIILVLSKVNEEWLEGECKSKVGIFPKVFVEDC [G46S] | -0.928 ± 0.18
32 | LKKGSQVEALFSYEATQPEDLEFQEGDIILVLSKVNEEWLEGECKVKVGIFPKVFVEDC [G46V] | -0.585 ± 0.15
33 | LKKGSQVEALFSYEATQPEDLEFQEGDIILVLSKVNEEWLEGECKLKVGIFPKVFVEDC [G46L] | -0.226 ± 0.12
34 | LKKGSQVEALFSYEATQPEDLEFQEGDIILVLSKVNEEWLEGECKGKVCIFPKVFVEDC [G49C] | -0.756 ± 0.17
35 | LKKGSQVEALFSYEATQPEDLEFQEGDIILVLSKVNEEWLEGECKGKVNIFPKVFVEDC [G49N] | -0.735 ± 0.15
36 | LKKGSQVEALFSYEATQPEDLEFQEGDIILVLSKVNEEWLEGECKGKVKIFPKVFVEDC [G49K] | 0.002 ± 0.19
37 | LKKGSQVEALFSYEATQPEDLEFQEGDIILVLSKVNEEWLEGECKGKVAIFPKVFVEDC [G49A] | -0.59 ± 0.18
38 | LKKGSQVEALFSYEATQPEDLEFQEGDIILVLSKVNEEWLEGECKGKVFIFPKVFVEDC [G49F] | -0.469 ± 0.11
39 | LKKGSQVEALFSYEATQPEDLEFQEGDIILVLSKVNEEWLEGECKGKVRIFPKVFVEDC [G49R] | -0.758 ± 0.2
40 | LKKGSQVEALFSYEATQPEDLEFQEGDIILVLSKVNEEWLEGECKGKVWIFPKVFVEDC [G49W] | -0.137 ± 0.17
41 | LKKGSQVEALFSYEATQPEDLEFQEGDIILVLSKVNEEWLEGECKGKVHIFPKVFVEDC [G49H] | -0.893 ± 0.28
42 | LKKGSQVEALFSYEATQPEDLEFQEGDIILVLSKVNEEWLEGECKGKVTIFPKVFVEDC [G49T] | -0.951 ± 0.25
43 | LKKGSQVEALFSYEATQPEDLEFQEGDIILVLSKVNEEWLEGECKGKVEIFPKVFVEDC [G49E] | -0.63 ± 0.38
44 | LKKGSQVEALFSYEATQPEDLEFQEGDIILVLSKVNEEWLEGECKGKVVIFPKVFVEDC [G49V] | -1.05 ± 0.18
45 | LKKGSQVEALFSYEATQPEDLEFQEGDIILVLSKVNEEWLEGECKGKVYIFPKVFVEDC [G49Y] | -0.503 ± 0.12
